Measured values published in patent US20250076311A1 (Chugai, published 2025).
Values belong to the binder of their own block, whether it stands above or below them.

How the values were obtained:
[1] = molecular target: T1, cynomolgus monkey FcγRIIa2 extracellular domain, His-tagged (cynomolgus monkey); assay: SPR Biacore, antibody captured, FcgR analyte
T1 construct: also called cyno FcγRIIa2; cynoFcgRIIa2; not shown: C-terminal His-tag
T1 chain: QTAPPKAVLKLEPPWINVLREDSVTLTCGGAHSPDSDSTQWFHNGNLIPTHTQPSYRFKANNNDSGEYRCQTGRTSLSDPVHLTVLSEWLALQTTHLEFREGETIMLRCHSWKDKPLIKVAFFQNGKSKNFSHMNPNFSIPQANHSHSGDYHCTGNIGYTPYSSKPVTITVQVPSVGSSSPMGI

[2] = molecular target: T2, cynomolgus monkey FcγRIIa1 extracellular domain with C-terminal His-tag (cynomolgus monkey); assay: SPR Biacore, antibody captured, FcgR analyte
T2 construct: also called cyno FcgRIIa1; cynoFcγRIIa1; not shown: His-tag added to C-terminus
T2 chain: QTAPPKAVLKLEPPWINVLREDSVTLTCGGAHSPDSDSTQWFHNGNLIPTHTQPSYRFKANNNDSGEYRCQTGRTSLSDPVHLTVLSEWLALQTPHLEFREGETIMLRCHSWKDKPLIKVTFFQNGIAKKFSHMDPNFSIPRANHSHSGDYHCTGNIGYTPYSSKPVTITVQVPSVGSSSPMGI

[3] = molecular target: T3, cynomolgus monkey FcγRIIIaS extracellular domain with C-terminal His-tag (cynomolgus monkey, UniProt A3RFZ7 21-206 (rhesus entry)); assay: SPR Biacore, antibody captured, FcgR analyte
T3 construct: also called cyno FcgRIIIaS; cynoFcγRIIIaS; not shown: His-tag added to C-terminus

[4] = molecular target: T4, human FcγRIIb extracellular domain with C-terminal His-tag (human, UniProt P31994 43-217); assay: SPR Biacore, antibody captured, FcgR analyte
T4 construct: also called human FcgRIIb; not shown: His-tag added to C-terminus
T4 sequence: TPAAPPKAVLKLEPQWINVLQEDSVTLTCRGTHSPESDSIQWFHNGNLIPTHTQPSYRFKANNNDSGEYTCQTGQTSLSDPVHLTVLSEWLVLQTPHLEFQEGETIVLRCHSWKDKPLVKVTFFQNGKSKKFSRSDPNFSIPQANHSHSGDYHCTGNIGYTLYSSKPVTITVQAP

[5] = molecular target: T5, cynomolgus monkey FcγRIIa3 extracellular domain with C-terminal His-tag (cynomolgus monkey); assay: SPR Biacore, antibody captured, FcgR analyte
T5 construct: also called cyno FcgRIIa3; cynoFcγRIIa3; not shown: His-tag added to C-terminus
T5 chain: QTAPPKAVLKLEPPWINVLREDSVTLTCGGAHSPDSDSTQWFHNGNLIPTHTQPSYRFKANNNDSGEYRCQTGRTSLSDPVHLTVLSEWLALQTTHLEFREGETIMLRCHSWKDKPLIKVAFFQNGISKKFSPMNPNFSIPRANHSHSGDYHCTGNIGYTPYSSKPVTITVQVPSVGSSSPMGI

[6] = molecular target: T6, human FcγRIIaR extracellular domain with C-terminal His-tag (human, UniProt P12318 34-217); assay: SPR (Biacore), KD of SG1 divided by KD of variant
T6 construct: also called human FcgRIIaR; FcγRIIa (type R)
T6 chain: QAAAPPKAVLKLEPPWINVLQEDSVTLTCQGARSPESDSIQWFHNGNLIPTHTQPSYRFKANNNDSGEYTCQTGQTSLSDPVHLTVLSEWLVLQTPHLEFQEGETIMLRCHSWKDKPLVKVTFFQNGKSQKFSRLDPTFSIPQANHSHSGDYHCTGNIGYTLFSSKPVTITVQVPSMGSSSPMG
Protocol: (§1) The kinetic analysis of interactions between these antibodies and FcγR was carried out using BIACORE® T200 or BIACORE® 4000 (GE Healthcare). HBS-EP+ (GE Healthcare) was used as the running buffer, and the measurement temperature was set to 25° C. […] After the measurement, the antibody captured on the chip was washed off by allowing reaction with 10 mM glycine-HCl, pH1.5 and 25 mM NaOH so that the chip was regenerated and used repeatedly. The sensorgrams obtained as measurement results were analyzed by the 1:1 Langmuir binding model using the BIACORE® Evaluation Software to calculate the binding rate constant ka (L/mol/s) and dissociation rate constant kd (1/s), and the dissociation constant KD (mol/L) was calculated from these values. […] Regarding such interactions, KD values were calculated using the following 1:1 binding model described in BIACORE® T100 Software Handbook BR1006-48 Edition AE.

[7] = molecular target: T7, human FcγRIIb extracellular domain, His-tagged (human, UniProt P31994 43-217); assay: SPR Biacore, KD(SG1)/KD(variant)
T7 construct: also called FcgRIIb (human); not shown: C-terminal His-tag
T7 sequence: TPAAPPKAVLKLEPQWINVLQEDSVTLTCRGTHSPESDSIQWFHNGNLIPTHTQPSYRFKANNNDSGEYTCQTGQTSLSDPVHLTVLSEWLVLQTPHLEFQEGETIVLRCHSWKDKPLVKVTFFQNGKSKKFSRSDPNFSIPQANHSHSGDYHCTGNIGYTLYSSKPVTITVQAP
Protocol: as §1

B1: M103205H795-MY006/M103202L889-SK1 (antibody, human IgG1, kappa, name in EU numbering)
heavy: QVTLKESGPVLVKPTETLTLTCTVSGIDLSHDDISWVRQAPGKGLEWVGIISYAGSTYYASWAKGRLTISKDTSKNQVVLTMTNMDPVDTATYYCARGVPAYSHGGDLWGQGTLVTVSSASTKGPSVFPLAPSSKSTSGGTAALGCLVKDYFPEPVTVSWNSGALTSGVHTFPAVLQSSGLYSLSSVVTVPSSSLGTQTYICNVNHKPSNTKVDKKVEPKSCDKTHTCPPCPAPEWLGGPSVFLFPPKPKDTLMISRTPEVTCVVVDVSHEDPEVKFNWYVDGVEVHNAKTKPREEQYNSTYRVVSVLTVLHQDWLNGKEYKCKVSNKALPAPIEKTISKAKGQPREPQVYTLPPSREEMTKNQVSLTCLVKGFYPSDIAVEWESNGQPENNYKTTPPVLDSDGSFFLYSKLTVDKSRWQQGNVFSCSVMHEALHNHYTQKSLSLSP
light: DIVMTQSPATLSLSPGERATLSCTSSQSVYHANWLSWFQQKPGQPPKLLIYWASTLAYGVPSRFSGSGSGTDFTLTISSLQPEDAATYYCAGGYGGGRYAFGQGTKVEIKRTVAAPSVFIFPPSDEQLKSGTASVVCLLNNFYPREAKVQWKVDNALQSGNSQESVTEQDSKDSTYSLSSTLTLSKADYEKHKVYACEVTHQGLSSPVTKSFNRGEC
notes: Substitution introduced into M103205H795-SG1; EU numbering
Kd [1]: 1.9 µM

B4: M103205H795-MY525 / M103202L889-SK1 (antibody, human IgG1, kappa, name in EU numbering)
heavy: QVTLKESGPVLVKPTETLTLTCTVSGIDLSHDDISWVRQAPGKGLEWVGIISYAGSTYYASWAKGRLTISKDTSKNQVVLTMTNMDPVDTATYYCARGVPAYSHGGDLWGQGTLVTVSSASTKGPSVFPLAPSSKSTSGGTAALGCLVKDYFPEPVTVSWNSGALTSGVHTFPAVLQSSGLYSLSSVVTVPSSSLGTQTYICNVNHKPSNTKVDKKVEPKSCDKTHTCPPCPTPELLTGPVVFLFPPKPKDTLMISRTPEVTCVVVDVSDEDPEVKFNWYVDGVEVHNAKTKPREEQYNSTYRVVSVLTVLHQDWLNGKEYKCKVSNKALPKPIEKTISKAKGQPREPQVYTLPPSREEMTKNQVSLTCLVKGFYPSDIAVEWESNGQPENNYKTTPPVLDSDGSFFLYSKLTVDKSRWQQGNVFSCSVMHEALHNHYTQKSLSLSP
light: DIVMTQSPATLSLSPGERATLSCTSSQSVYHANWLSWFQQKPGQPPKLLIYWASTLAYGVPSRFSGSGSGTDFTLTISSLQPEDAATYYCAGGYGGGRYAFGQGTKVEIKRTVAAPSVFIFPPSDEQLKSGTASVVCLLNNFYPREAKVQWKVDNALQSGNSQESVTEQDSKDSTYSLSSTLTLSKADYEKHKVYACEVTHQGLSSPVTKSFNRGEC
KD fold (SG1 = 1) [6]: 6.9 fold

B7: M103205H795-MY169/M103202L889-SK1 (antibody, human IgG1, kappa, name in EU numbering)
heavy: QVTLKESGPVLVKPTETLTLTCTVSGIDLSHDDISWVRQAPGKGLEWVGIISYAGSTYYASWAKGRLTISKDTSKNQVVLTMTNMDPVDTATYYCARGVPAYSHGGDLWGQGTLVTVSSASTKGPSVFPLAPSSKSTSGGTAALGCLVKDYFPEPVTVSWNSGALTSGVHTFPAVLQSSGLYSLSSVVTVPSSSLGTQTYICNVNHKPSNTKVDKKVEPKSCDKTHTCPPCPAPELLNGPSVFLFPPKPKDTLMISRTPEVTCVVVDVSEEDPEVKFNWYVDGVEVHNAKTKPREEQYNSTYRVVSVLTVLHQDWLNGKEYKCKVSNKALPAPIEKTISKAKGQPREPQVYTLPPSREEMTKNQVSLTCLVKGFYPSDIAVEWESNGQPENNYKTTPDVLDSDGSFFLYSKLTVDKSRWQQGNVFSCSVMHEALHNHYTQKSLSLSP
light: DIVMTQSPATLSLSPGERATLSCTSSQSVYHANWLSWFQQKPGQPPKLLIYWASTLAYGVPSRFSGSGSGTDFTLTISSLQPEDAATYYCAGGYGGGRYAFGQGTKVEIKRTVAAPSVFIFPPSDEQLKSGTASVVCLLNNFYPREAKVQWKVDNALQSGNSQESVTEQDSKDSTYSLSSTLTLSKADYEKHKVYACEVTHQGLSSPVTKSFNRGEC
notes: EU numbering
Kd [2]: 23 µM
KD fold (SG1 = 1) [3]: 0.1 fold
Kd [3]: 3.5 µM

More lines, now with the values ahead:

KD fold (SG1 = 1) [2]: 3.7 fold
KD fold (SG1 = 1) [3]: 0.09 fold
B2: M103205H795-MY202/M103202L889-SK1 (antibody, human IgG1, kappa, name in EU numbering)
heavy: QVTLKESGPVLVKPTETLTLTCTVSGIDLSHDDISWVRQAPGKGLEWVGIISYAGSTYYASWAKGRLTISKDTSKNQVVLTMTNMDPVDTATYYCARGVPAYSHGGDLWGQGTLVTVSSASTKGPSVFPLAPSSKSTSGGTAALGCLVKDYFPEPVTVSWNSGALTSGVHTFPAVLQSSGLYSLSSVVTVPSSSLGTQTYICNVNHKPSNTKVDKKVEPKSCDKTHTCPPCPAPELLNGPVVFLFPPKPKDTLMISRTPEVTCVVVDVSDEDPEVKFNWYVDGVEVHNAKTKPREEQYNSTYRVVSVLTVLHQDWLNGKEYKCKVSNKALPKPIEKTISKAKGQPREPQVYTLPPSREEMTKNQVSLTCLVKGFYPSDIAVEWESNGQPENNYKTTPPVLDSDGSFFLYSKLTVDKSRWQQGNVFSCSVMHEALHNHYTQKSLSLSP
light: DIVMTQSPATLSLSPGERATLSCTSSQSVYHANWLSWFQQKPGQPPKLLIYWASTLAYGVPSRFSGSGSGTDFTLTISSLQPEDAATYYCAGGYGGGRYAFGQGTKVEIKRTVAAPSVFIFPPSDEQLKSGTASVVCLLNNFYPREAKVQWKVDNALQSGNSQESVTEQDSKDSTYSLSSTLTLSKADYEKHKVYACEVTHQGLSSPVTKSFNRGEC
notes: substitutions in EU numbering, introduced into M103205H795-SG1

Kd [4]: 1.9 µM
KD fold (SG1 = 1) [2]: 1.7 fold
Kd [5]: 1.2 µM
KD fold (SG1 = 1) [3]: 0.17 fold
Kd [3]: 3.1 µM
B3: M103205H795-MY180/M103202L889-SK1 (antibody, human IgG1, kappa, name in EU numbering)
heavy: QVTLKESGPVLVKPTETLTLTCTVSGIDLSHDDISWVRQAPGKGLEWVGIISYAGSTYYASWAKGRLTISKDTSKNQVVLTMTNMDPVDTATYYCARGVPAYSHGGDLWGQGTLVTVSSASTKGPSVFPLAPSSKSTSGGTAALGCLVKDYFPEPVTVSWNSGALTSGVHTFPAVLQSSGLYSLSSVVTVPSSSLGTQTYICNVNHKPSNTKVDKKVEPKSCDKTHTCPPCPAPELLNGPSVFLFPPKPKDTLMISRTPEVTCVVVDVSEEDPEVKFNWYVDGVEVHNAKTKPREEQYNSTYRVVSVLTVLHQDWLNGKEYKCKVSNKALPAPIEKTISKAKGQPREPQVYTLPPSREEMTKNQVSLTCLVKGFYPSDIAVEWESNGQPENNYKTTPSVLDSDGSFFLYSKLTVDKSRWQQGNVFSCSVMHEALHNHYTQKSLSLSP
light: DIVMTQSPATLSLSPGERATLSCTSSQSVYHANWLSWFQQKPGQPPKLLIYWASTLAYGVPSRFSGSGSGTDFTLTISSLQPEDAATYYCAGGYGGGRYAFGQGTKVEIKRTVAAPSVFIFPPSDEQLKSGTASVVCLLNNFYPREAKVQWKVDNALQSGNSQESVTEQDSKDSTYSLSSTLTLSKADYEKHKVYACEVTHQGLSSPVTKSFNRGEC
notes: EU numbering

KD fold (SG1 = 1) [7]: 1.5 fold
B5: M103205H795-MY041/M103202L889-SK1 (antibody, human IgG1, kappa, name in EU numbering)
heavy: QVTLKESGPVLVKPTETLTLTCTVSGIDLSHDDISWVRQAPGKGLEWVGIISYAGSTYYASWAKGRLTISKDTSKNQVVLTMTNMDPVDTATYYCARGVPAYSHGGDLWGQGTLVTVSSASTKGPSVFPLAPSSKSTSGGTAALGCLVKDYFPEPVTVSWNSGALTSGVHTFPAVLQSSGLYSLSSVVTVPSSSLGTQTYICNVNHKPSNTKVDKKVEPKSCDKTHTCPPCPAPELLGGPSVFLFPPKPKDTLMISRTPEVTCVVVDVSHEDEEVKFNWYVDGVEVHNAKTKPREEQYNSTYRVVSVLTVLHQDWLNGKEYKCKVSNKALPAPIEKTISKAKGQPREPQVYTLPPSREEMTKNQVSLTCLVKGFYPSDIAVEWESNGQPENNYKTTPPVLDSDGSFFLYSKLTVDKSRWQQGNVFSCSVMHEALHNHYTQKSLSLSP
light: DIVMTQSPATLSLSPGERATLSCTSSQSVYHANWLSWFQQKPGQPPKLLIYWASTLAYGVPSRFSGSGSGTDFTLTISSLQPEDAATYYCAGGYGGGRYAFGQGTKVEIKRTVAAPSVFIFPPSDEQLKSGTASVVCLLNNFYPREAKVQWKVDNALQSGNSQESVTEQDSKDSTYSLSSTLTLSKADYEKHKVYACEVTHQGLSSPVTKSFNRGEC
notes: as for B1

KD fold (SG1 = 1) [4]: 2.5 fold
Kd [2]: 23 µM
Kd [5]: 1.2 µM
KD fold (SG1 = 1) [3]: 0.17 fold
Kd [3]: 7.9 µM
B6: M103205H795-MY170/M103202L889-SK1 (antibody, human IgG1, kappa, name in EU numbering)
heavy: QVTLKESGPVLVKPTETLTLTCTVSGIDLSHDDISWVRQAPGKGLEWVGIISYAGSTYYASWAKGRLTISKDTSKNQVVLTMTNMDPVDTATYYCARGVPAYSHGGDLWGQGTLVTVSSASTKGPSVFPLAPSSKSTSGGTAALGCLVKDYFPEPVTVSWNSGALTSGVHTFPAVLQSSGLYSLSSVVTVPSSSLGTQTYICNVNHKPSNTKVDKKVEPKSCDKTHTCPPCPAPELLNGPSVFLFPPKPKDTLMISRTPEVTCVVVDVSEEDPEVKFNWYVDGVEVHNAKTKPREEQYNSTYRVVSVLTVLHQDWLNGKEYKCKVSNKALPAPIEKTISKAKGQPREPQVYTLPPSREEMTKNQVSLTCLVKGFYPSDIAVEWESNGQPENNYKTTPEVLDSDGSFFLYSKLTVDKSRWQQGNVFSCSVMHEALHNHYTQKSLSLSP
light: DIVMTQSPATLSLSPGERATLSCTSSQSVYHANWLSWFQQKPGQPPKLLIYWASTLAYGVPSRFSGSGSGTDFTLTISSLQPEDAATYYCAGGYGGGRYAFGQGTKVEIKRTVAAPSVFIFPPSDEQLKSGTASVVCLLNNFYPREAKVQWKVDNALQSGNSQESVTEQDSKDSTYSLSSTLTLSKADYEKHKVYACEVTHQGLSSPVTKSFNRGEC
notes: EU numbering
